{"source": "paper PMC10119177", "about": "(2023)", "parents": {"B1": {"name": "recombinant CEACAM1 N-terminal domain with His tag (rCEACAM1-N-HIS), wildtype [human] / IgI3 domain of R28 (R28-IgI3), wildtype [Streptococcus pyogenes] (parent complex)", "chain 1": "AQLTTESMPFNVAEGKEVLLLVHNLPQQLFGYSWYKGERVDGNRQIVGYAIGTQQATPGPANSGRETIYPNASLLIQNVTQNDTGFYTLQVIKSDLVNEEATGQFHVY", "chain 2": "TAPTLTVTPEQQTVKVDEDITFTVTVEDENEVELGLDDLKAKYENDIIGARVKIKYLTKEPNKKVMEVTIMKATLADKGAITFTAKDKAGNQAEPKTVTINVLPLKDSNEPKLPSTGGS"}}, "data": [{"variants_of": "B1", "test": "Dynabead binding assay (Dynabeads coated with R28-IgI3, DB.R28IgI3, incubated with rCC1-N variants); parent: 23; read off a plot", "values": [{"variant": "chain 1 Q45A", "response": "~20"}, {"variant": "chain 1 I92A", "response": "~5"}, {"variant": "chain 1 F30A", "response": "~5.5"}, {"variant": "chain 1 V97A", "response": "~100"}, {"variant": "chain 1 L96A", "response": "~6"}, {"variant": "chain 1 Q90A", "response": "~10"}, {"variant": "chain 1 N98A", "response": "~90"}]}, {"variants_of": "B1", "test": "Dynabead binding assay (Dynabeads coated with R28-IgI3, DB.R28IgI3, incubated with rCC1-N); parent: 33; read off a plot", "values": [{"variant": "chain 2 Y56A", "response": "~7"}, {"variant": "chain 2 I47A", "response": "~5.5"}, {"variant": "chain 2 K40A", "response": "~7"}, {"variant": "chain 2 I48A", "response": "~5.5"}, {"variant": "chain 2 E44A", "response": "~40"}, {"variant": "chain 2 I54A", "response": "~19"}, {"variant": "chain 2 K59A", "response": "~21"}]}]}
